In publication PMC7948508, “Comparison of human poly-N-acetyl-lactosamine synthase structure with GT-A fold glycosyltransferases supports a modular assembly of catalytic subsites” (The Journal of Biological Chemistry, 2020):

Target: the molecule itself
Assay: SEC-MALS; 20 μl at 1 mg/ml on Superdex 75; 25 mM HEPES (pH 7.4), 150 mM NaCl, 0.02% NaN3

B1: catalytic domain of human β-1,3-N-acetylglucosaminyltransferase 2 (B3GNT2, residues 34–397) (domain or fragment, UniProt Q9NY97 34-397, looked up)
chain: EKNGKGEVIIPKEKFWKISTPPEAYWNREQEKLNRQYNPILSMLTNQTGEAGRLSNISHLNYCEPDLRVTSVVTGFNNLPDRFKDFLLYLRCRNYSLLIDQPDKCAKKPFLLLAIKSLTPHFARRQAIRESWGQESNAGNQTVVRVFLLGQTPPEDNHPDLSDMLKFESEKHQDILMWNYRDTFFNLSLKEVLFLRWVSTSCPDTEFVFKGDDDVFVNTHHILNYLNSLSKTKAKDLFIGDVIHNAGPHRDKKLKYYIPEVVYSGLYPPYAGGGGFLYSGHLALRLYHITDQVHLYPIDDVYTGMCLQKLGLVPEKHKGFRTFDIEEKNKNNICSYVDLMLVHSRKPQEMIDIWSQLQSAHLKC
modifications: N-glycans cut by EndoF1, leaving only a single GlcNAc residue attached to each Asn side chain (sequons N79, N89, N127, N173, N219); at Asn219 a Manβ1,4-GlcNAcβ1,4-GlcNAcβ- glycan is seen in the crystal structure
notes: also called B3GNT2 cat domain; B3GNT2 catalytic domain; source: HEK293S (GnTI-) cells, transient transfection, secreted; purified (Ni2+-NTA, TEV protease + EndoF1 cleavage, second Ni2+-NTA, Superdex 75); not shown: 8xHis, N-terminal, cleaved; AviTag, N-terminal, cleaved; superfolder GFP, N-terminal, cleaved
stoichiometry N: 2
